The text below walks through data of US20140004120A1 (Daiichi Sankyo, published 2014).

The target of this assay is T1, rsDR5 (recombinant human DR5 extracellular domain protein) (human, UniProt O14763 56-183).
T1 construct: the two may be offset
Kind of assay: gel filtration (Superdex 200) of the mixture of cB273 Fab fragment and rsDR5; complex then crystallized.

B1: cB273 Fab fragment (Fab, V domains shown)
VH: EVQLQQSGPELVKPGASVKISCKASGYSFIGYFMNWMKQSHGKSLEWIGRFNPYNGDTFYNQKFKGKATLTVDKSSTTAHMELLSLTSEDSAVYFCGRSAYYFDSGGYFDYWGQGTTLTVSS
VL: DVVMTQTPLSLPVSLGDQASISCRSSQSLVHSNGNTYLHWYLQKPGQSPKLLIYKVSNRFSGVPDRFSGSGSGTDFTLKISRVEAEDLGIYFCSQSTHVPWTFGGGTKLEIKR
With B1, the binding result is listed as “binds”.
